For test [1], the target named is T1, Mouse INSL5 (mouse).
T1 construct: Bought two-chain peptide (Phoenix Pharmaceuticals Cat #035-40); also called mouse insulin-like peptide-5; mouse INSL5 peptide
T1 chain 1: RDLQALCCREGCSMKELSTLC
T1 chain 2: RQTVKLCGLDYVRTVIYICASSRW
The test can be described thus: SPR (Biacore 8K), antibody captured on Protein A, INSL5 peptide as analyte, 37 C. On the procedure:
(§1) Human INSL5 (Phoenix Pharmaceuticals Cat #035-70A) and mouse INSL5 (Phoenix Pharmaceuticals 035-40) are reconstituted at 0.5 (99 μM) or 1 mg/mL (195 μM) in DMSO, respectively. […] The antibodies of Example 1, 2, or a negative control are prepared by diluting them to 1 μg/mL in 1×HBS-EP+ buffer.
(§2) The experiment is conducted at 25° C. as well as at 37° C. and initiated with 5 start-up cycles of injecting 1×HBS-EP+ buffer. Then in each cycle, the antibody is captured onto flow cell 2 of channels 1-8 at 10 μL/min for 20 seconds. Next, 180 μL of the respective INSL5 peptide sample is individually injected across flow cells 1 and 2 for 180 seconds at 60 μL/min and then let dissociate for 1200 seconds at 60 μL/min flow rate. The surface is regenerated by injecting two 15 second pulses of 10 mM glycine-HCl pH 1.5 (BR-1003-54) at 30 μL/min. After a stabilization period of 60 seconds at a flow rate of 60 μL/min the next cycle is started.
(§3) The resulting sensorgrams are analyzed using Biacore 8K Evaluation Software). 1:1 binding kinetics model fitting is used to calculate the binding kinetic parameters association rate (ka), dissociation rate (kd), and equilibrium dissociation constant (KD).

Test [2] has as its target T2, Human INSL5 (human).
T2 construct: also called human insulin-like peptide-5; human INSL5 peptide
T2 chain 1: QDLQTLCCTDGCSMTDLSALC
T2 chain 2: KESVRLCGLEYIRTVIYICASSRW
The description is as above. On the procedure: as §1, §2, §3

Test [3] addresses T1, Mouse INSL5. The test can be described thus: SPR (Biacore 8K), antibody captured on Protein A, INSL5 peptide as analyte, 25 C. On the procedure: as §1, §2, §3
Background: SPR reads the build-up and loss of mass on a sensor chip optically.

Test [4] deals with T2, Human INSL5. The test is described as above. As for the experimental part: as §1, §2, §3

B1: Antibody II (antibody, V domains shown)
VH: QSVEESGGGLVTPGGSLTLTCTVSGIDLTTYAMGWVRQAPGEGLEWIGIIGGGGRTYYAAWAKGRFTISKTSTTVDLRITSPATEDTATYFCVRGGDFFDLWGPGTLVTVSS
VL: AQVLTQTPASVSAAVGGTVTIKCQASEDISKYLSWYQQKPGQRPKLLIYYVSNLEFGVPSRFKGSGSGTEYTLTISDLECDDAATYYCHQGYTGVNVENVFGGGTEVVVRG
As a reminder, the Kd is the constant that tells how readily two partners part at equilibrium. A high value points to weaker binding. As a reminder, the koff is the first-order rate constant of dissociation. Low readings indicate slow dissociation, high ones fast dissociation. The term kon denotes a measure of how fast the partners come together. High values mean faster complex formation, low ones slower complex formation. On to B1, for which the Kd with Mouse INSL5 [1] was 0.014 nM; with Human INSL5 [2], 0.081 nM; with Mouse INSL5 [3] it was 0.0061 nM; with Human INSL5 [4], 0.021 nM. Also, the koff in the test with Mouse INSL5 [1] was found to be 0.00072 s⁻¹; with Human INSL5 [2], 0.0033 s⁻¹; with Mouse INSL5 [3] it was 0.00011 s⁻¹; with Human INSL5 [4], 0.00034 s⁻¹. Moreover, the kon was found to be 5.1e+07 M⁻¹ s⁻¹ with Mouse INSL5 [1], 4e+07 M⁻¹ s⁻¹ with Human INSL5 [2], 1.8e+07 M⁻¹ s⁻¹ with Mouse INSL5 [3] and 1.6e+07 M⁻¹ s⁻¹ with Human INSL5 [4].

B2: Antibody I (antibody, V domains shown)
VH: QSVEESGGRLVTPGTPLTLTCTASGFSLSSYDMGWVRQTPGEGLEWVGTISAGGYTYYAHWAKGRFTISKSSTTVDLKMTSLTTEDTATYFCARERWNYDRSGGAGAGYFDLWGPGTLVTVSS
VL: DVVMTQTASPVSAAVGGTVTINCQASQSITSSYLSWYQQKPGQPPKLLIYPAANLASGVPSRFKGSGSGTQFTLTISGVQCDDAATYYCLYGYFSSSIDFAFGGGTEVVVRG
With B2, the Kd came to 0.0067 nM with Mouse INSL5 [1], 0.11 nM with Human INSL5 [2], 0.0046 nM with Mouse INSL5 [3] and 0.041 nM with Human INSL5 [4]. For the same molecule, the koff with Mouse INSL5 [1] came to 0.00015 s⁻¹; in the test with Human INSL5 [2], 0.0026 s⁻¹; with Mouse INSL5 [3] it was 5.4e-05 s⁻¹; with Human INSL5 [4], 0.00036 s⁻¹. Moreover, the kon in the test with Mouse INSL5 [1] came out at 2.3e+07 M⁻¹ s⁻¹; with Human INSL5 [2], 2.4e+07 M⁻¹ s⁻¹; with Mouse INSL5 [3] it was 1.2e+07 M⁻¹ s⁻¹; with Human INSL5 [4], 8.8e+06 M⁻¹ s⁻¹.

These data come from US20230257460A1 (Eli Lilly, published 2023).
